Test results published in paper PMC9482650, “Quantitative fragmentomics allow affinity mapping of interactomes” (Nature Communications, 2022).

T1: APBA1_2, Q02410
T1 sequence (Q02410 742-832, limits assumed, looked up): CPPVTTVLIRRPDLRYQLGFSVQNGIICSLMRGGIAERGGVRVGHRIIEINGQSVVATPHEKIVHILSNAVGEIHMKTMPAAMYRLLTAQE

T2: APBA3_1, O96018
T2 sequence (O96018 389-490, limits assumed, looked up): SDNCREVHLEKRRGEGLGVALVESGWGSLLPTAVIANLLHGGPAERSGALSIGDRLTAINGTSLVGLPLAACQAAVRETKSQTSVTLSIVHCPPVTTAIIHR

T3: DFNB31_1, Q9P202
T3 sequence (Q9P202 135-233, limits assumed, looked up): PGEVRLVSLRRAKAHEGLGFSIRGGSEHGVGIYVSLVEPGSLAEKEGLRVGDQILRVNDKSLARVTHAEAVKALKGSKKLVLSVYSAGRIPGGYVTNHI

T4: DFNB31_3, Q9P202
T4 sequence (Q9P202 811-907, limits assumed, looked up): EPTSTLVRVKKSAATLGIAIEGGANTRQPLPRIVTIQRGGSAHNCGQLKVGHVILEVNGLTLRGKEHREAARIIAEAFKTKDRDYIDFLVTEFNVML

T5: GRIP1_3, Q9Y3R0
T5 sequence (Q9Y3R0 247-346, limits assumed, looked up): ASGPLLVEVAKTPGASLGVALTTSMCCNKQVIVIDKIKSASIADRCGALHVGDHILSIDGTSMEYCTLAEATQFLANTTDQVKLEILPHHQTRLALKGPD

T6: GRIP1_7, Q9Y3R0
T6 sequence (Q9Y3R0 999-1096, limits assumed, looked up): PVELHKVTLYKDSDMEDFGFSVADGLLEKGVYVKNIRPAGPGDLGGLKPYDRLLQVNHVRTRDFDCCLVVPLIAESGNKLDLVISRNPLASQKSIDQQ

T7: MPDZ_12, O75970
T7 sequence (O75970 1857-1958, limits assumed, looked up): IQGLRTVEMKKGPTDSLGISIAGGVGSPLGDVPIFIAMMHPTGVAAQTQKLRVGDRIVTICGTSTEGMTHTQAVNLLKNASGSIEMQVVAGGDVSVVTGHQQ

T8: MPP6, Q9NZW5
T8 sequence (Q9NZW5 125-219, limits assumed, looked up): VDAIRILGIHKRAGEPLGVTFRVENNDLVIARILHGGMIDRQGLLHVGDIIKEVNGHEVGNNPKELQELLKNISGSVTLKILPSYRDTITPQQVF

T9: PDZD7_3, Q9H5P4
T9 sequence (Q9H5P4 857-944, limits assumed, looked up): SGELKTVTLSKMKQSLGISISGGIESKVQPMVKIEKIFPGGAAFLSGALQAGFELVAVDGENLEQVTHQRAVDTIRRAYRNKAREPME

T10: PTPN13_1, Q12923
T10 sequence (Q12923 1088-1188, limits assumed, looked up): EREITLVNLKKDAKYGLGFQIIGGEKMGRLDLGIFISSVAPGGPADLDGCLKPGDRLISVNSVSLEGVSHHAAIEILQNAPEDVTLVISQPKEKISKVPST

T11: SHANK1, Q9Y566
T11 sequence (Q9Y566 658-767, limits assumed, looked up): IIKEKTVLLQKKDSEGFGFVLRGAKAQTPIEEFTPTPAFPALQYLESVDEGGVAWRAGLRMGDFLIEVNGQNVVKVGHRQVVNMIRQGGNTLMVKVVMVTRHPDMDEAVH

T12: SYNJ2BP, P57105
T12 sequence (P57105 8-110, limits assumed, looked up): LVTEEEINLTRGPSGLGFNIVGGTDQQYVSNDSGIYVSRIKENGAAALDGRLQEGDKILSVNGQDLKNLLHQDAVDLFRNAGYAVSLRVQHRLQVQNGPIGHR

B1: MCC, P23508 (peptide)
chain: SRPHTNETSL
B2: SIPA1, Q96FS4 (peptide)
chain: QLGSPTADLA

molecular target: AHNAK1, Q09666; experiment: holdup assay; parameters: key: below the threshold = too weak to quantify, mostly under pKd 3.1 to 4; conditions: plain residues with an end cap or a label only (N-terminal biotin on a linker: ado-ado)
Sequence (Q09666 4-100): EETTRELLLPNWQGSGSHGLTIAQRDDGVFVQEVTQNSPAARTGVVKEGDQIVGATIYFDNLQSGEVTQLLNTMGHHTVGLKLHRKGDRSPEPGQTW

Binder	pKd
B1	below the threshold
B2	below the threshold

molecular target: T1, APBA1_2, Q02410; experiment: holdup assay; parameters: key: below the threshold = too weak to quantify, mostly under pKd 3.1 to 4; conditions: plain residues with an end cap or a label only (N-terminal biotin on a linker: ado-ado)

Binder	pKd
B1	3.59
B2	below the threshold

molecular target: T2, APBA3_1, O96018; experiment: holdup assay; parameters: key: below the threshold = too weak to quantify, mostly under pKd 3.1 to 4; conditions: plain residues with an end cap or a label only (N-terminal biotin on a linker: ado-ado)

Binder	pKd
B1	below the threshold
B2	below the threshold

molecular target: T3, DFNB31_1, Q9P202; experiment: holdup assay; parameters: key: below the threshold = too weak to quantify, mostly under pKd 3.1 to 4; conditions: plain residues with an end cap or a label only (N-terminal biotin on a linker: ado-ado)

Binder	pKd
B1	4.28
B2	below the threshold

molecular target: T4, DFNB31_3, Q9P202; experiment: holdup assay; parameters: key: below the threshold = too weak to quantify, mostly under pKd 3.1 to 4; conditions: plain residues with an end cap or a label only (N-terminal biotin on a linker: ado-ado)

Binder	pKd
B1	below the threshold
B2	3.55

molecular target: DLG1_1, Q12959; experiment: holdup assay; parameters: key: below the threshold = too weak to quantify, mostly under pKd 3.1 to 4; conditions: plain residues with an end cap or a label only (N-terminal biotin on a linker: ado-ado)

Binder	pKd
B1	3.72
B2	below the threshold

molecular target: DLG4_2, P78352; experiment: holdup assay; parameters: key: below the threshold = too weak to quantify, mostly under pKd 3.1 to 4; conditions: plain residues with an end cap or a label only (N-terminal biotin on a linker: ado-ado)
Sequence (P78352 155-259): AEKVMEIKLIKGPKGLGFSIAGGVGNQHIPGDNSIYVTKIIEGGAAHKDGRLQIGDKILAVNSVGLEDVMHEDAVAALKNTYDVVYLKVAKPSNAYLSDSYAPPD

Binder	pKd
B1	3.83
B2	3.54

molecular target: DLG4_3, P78352; experiment: holdup assay; parameters: key: below the threshold = too weak to quantify, mostly under pKd 3.1 to 4; conditions: plain residues with an end cap or a label only (N-terminal biotin on a linker: ado-ado)
Sequence (P78352 306-403): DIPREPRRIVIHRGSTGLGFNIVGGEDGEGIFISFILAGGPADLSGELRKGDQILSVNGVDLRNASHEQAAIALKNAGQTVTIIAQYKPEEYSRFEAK

Binder	pKd
B1	3.95
B2	below the threshold

molecular target: DLG5_1, Q8TDM6; experiment: holdup assay; parameters: key: below the threshold = too weak to quantify, mostly under pKd 3.1 to 4; conditions: plain residues with an end cap or a label only (N-terminal biotin on a linker: ado-ado)
Sequence (Q8TDM6 617-713): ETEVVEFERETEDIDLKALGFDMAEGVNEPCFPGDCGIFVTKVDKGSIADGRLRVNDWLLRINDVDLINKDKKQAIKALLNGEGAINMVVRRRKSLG

Binder	pKd
B1	below the threshold
B2	below the threshold

molecular target: FRMPD2_3, Q68DX3; experiment: holdup assay; parameters: key: below the threshold = too weak to quantify, mostly under pKd 3.1 to 4; conditions: plain residues with an end cap or a label only (N-terminal biotin on a linker: ado-ado)
Sequence (Q68DX3 1073-1166): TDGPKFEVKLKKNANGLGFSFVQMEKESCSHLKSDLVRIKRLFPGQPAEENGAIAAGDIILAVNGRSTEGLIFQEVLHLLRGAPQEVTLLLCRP

Binder	pKd
B1	below the threshold
B2	below the threshold

molecular target: GRID2IP_1, A4D2P6; experiment: holdup assay; parameters: key: below the threshold = too weak to quantify, mostly under pKd 3.1 to 4; conditions: plain residues with an end cap or a label only (N-terminal biotin on a linker: ado-ado)
Sequence (A4D2P6 1-87): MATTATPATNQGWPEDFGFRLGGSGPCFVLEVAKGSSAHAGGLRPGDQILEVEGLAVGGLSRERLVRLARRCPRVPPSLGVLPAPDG

Binder	pKd
B1	below the threshold
B2	below the threshold

molecular target: GRID2IP_2, A4D2P6; experiment: holdup assay; parameters: key: below the threshold = too weak to quantify, mostly under pKd 3.1 to 4; conditions: plain residues with an end cap or a label only (N-terminal biotin on a linker: ado-ado)
Sequence (A4D2P6 272-370): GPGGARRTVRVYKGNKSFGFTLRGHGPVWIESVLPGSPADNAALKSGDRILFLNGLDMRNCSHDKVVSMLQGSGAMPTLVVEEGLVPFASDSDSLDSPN

Binder	pKd
B1	4.21
B2	below the threshold

molecular target: T5, GRIP1_3, Q9Y3R0; experiment: holdup assay; parameters: key: below the threshold = too weak to quantify, mostly under pKd 3.1 to 4; conditions: plain residues with an end cap or a label only (N-terminal biotin on a linker: ado-ado)

Binder	pKd
B1	below the threshold
B2	below the threshold

molecular target: T6, GRIP1_7, Q9Y3R0; experiment: holdup assay; parameters: key: below the threshold = too weak to quantify, mostly under pKd 3.1 to 4; conditions: plain residues with an end cap or a label only (N-terminal biotin on a linker: ado-ado)

Binder	pKd
B1	below the threshold
B2	below the threshold

molecular target: Inadl_8, Q8NI35; experiment: holdup assay; parameters: key: below the threshold = too weak to quantify, mostly under pKd 3.1 to 4; conditions: plain residues with an end cap or a label only (N-terminal biotin on a linker: ado-ado)
Sequence (Q8NI35 1425-1530): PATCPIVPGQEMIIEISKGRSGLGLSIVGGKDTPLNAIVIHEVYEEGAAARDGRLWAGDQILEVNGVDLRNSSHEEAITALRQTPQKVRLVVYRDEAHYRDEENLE

Binder	pKd
B1	below the threshold
B2	below the threshold

molecular target: MAGI1_1, Q96QZ7; experiment: holdup assay; parameters: key: below the threshold = too weak to quantify, mostly under pKd 3.1 to 4; conditions: plain residues with an end cap or a label only (N-terminal biotin on a linker: ado-ado)
Sequence (Q96QZ7 1-106): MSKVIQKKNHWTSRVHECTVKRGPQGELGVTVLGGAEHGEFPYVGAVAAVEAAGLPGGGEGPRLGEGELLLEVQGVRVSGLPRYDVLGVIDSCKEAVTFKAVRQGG

Binder	pKd
B1	below the threshold
B2	below the threshold

molecular target: MAGI1_2, Q96QZ7; experiment: holdup assay; parameters: key: below the threshold = too weak to quantify, mostly under pKd 3.1 to 4; conditions: plain residues with an end cap or a label only (N-terminal biotin on a linker: ado-ado)
Sequence (Q96QZ7 456-580): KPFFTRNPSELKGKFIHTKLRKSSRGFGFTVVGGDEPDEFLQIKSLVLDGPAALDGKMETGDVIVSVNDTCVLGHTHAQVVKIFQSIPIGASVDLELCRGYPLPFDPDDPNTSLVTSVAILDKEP

Binder	pKd
B1	3.63
B2	below the threshold

molecular target: T7, MPDZ_12, O75970; experiment: holdup assay; parameters: key: below the threshold = too weak to quantify, mostly under pKd 3.1 to 4; conditions: plain residues with an end cap or a label only (N-terminal biotin on a linker: ado-ado)

Binder	pKd
B1	below the threshold
B2	3.75

molecular target: T8, MPP6, Q9NZW5; experiment: holdup assay; parameters: key: below the threshold = too weak to quantify, mostly under pKd 3.1 to 4; conditions: plain residues with an end cap or a label only (N-terminal biotin on a linker: ado-ado)

Binder	pKd
B1	below the threshold
B2	below the threshold

molecular target: NHERF2_2, Q15599; experiment: holdup assay; parameters: key: below the threshold = too weak to quantify, mostly under pKd 3.1 to 4; conditions: plain residues with an end cap or a label only (N-terminal biotin on a linker: ado-ado)
Sequence (Q15599 142-238): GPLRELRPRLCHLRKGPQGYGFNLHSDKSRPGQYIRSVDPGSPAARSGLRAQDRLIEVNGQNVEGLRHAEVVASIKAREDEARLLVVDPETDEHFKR

Binder	pKd
B1	4.49
B2	below the threshold

molecular target: T9, PDZD7_3, Q9H5P4; experiment: holdup assay; parameters: key: below the threshold = too weak to quantify, mostly under pKd 3.1 to 4; conditions: plain residues with an end cap or a label only (N-terminal biotin on a linker: ado-ado)

Binder	pKd
B1	4.36
B2	below the threshold

molecular target: PDZRN4_1, Q6ZMN7; experiment: holdup assay; parameters: key: below the threshold = too weak to quantify, mostly under pKd 3.1 to 4; conditions: plain residues with an end cap or a label only (N-terminal biotin on a linker: ado-ado)
Sequence (Q6ZMN7 213-318): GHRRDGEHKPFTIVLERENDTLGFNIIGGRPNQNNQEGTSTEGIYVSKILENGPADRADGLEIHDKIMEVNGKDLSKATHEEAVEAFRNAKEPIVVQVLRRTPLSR

Binder	pKd
B1	5.22
B2	below the threshold

molecular target: T10, PTPN13_1, Q12923; experiment: holdup assay; parameters: key: below the threshold = too weak to quantify, mostly under pKd 3.1 to 4; conditions: plain residues with an end cap or a label only (N-terminal biotin on a linker: ado-ado)

Binder	pKd
B1	below the threshold
B2	below the threshold

molecular target: T11, SHANK1, Q9Y566; experiment: holdup assay; parameters: key: below the threshold = too weak to quantify, mostly under pKd 3.1 to 4; conditions: plain residues with an end cap or a label only (N-terminal biotin on a linker: ado-ado)

Binder	pKd
B1	4.17
B2	below the threshold

molecular target: T12, SYNJ2BP, P57105; experiment: holdup assay; parameters: key: below the threshold = too weak to quantify, mostly under pKd 3.1 to 4; conditions: plain residues with an end cap or a label only (N-terminal biotin on a linker: ado-ado)

Binder	pKd
B1	4.84
B2	below the threshold

molecular target: TJP1_3, Q07157; experiment: holdup assay; parameters: key: below the threshold = too weak to quantify, mostly under pKd 3.1 to 4; conditions: plain residues with an end cap or a label only (N-terminal biotin on a linker: ado-ado)
Sequence (Q07157 416-512): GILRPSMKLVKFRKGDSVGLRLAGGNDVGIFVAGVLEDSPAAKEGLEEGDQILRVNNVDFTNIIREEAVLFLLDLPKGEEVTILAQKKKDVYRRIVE

Binder	pKd
B1	below the threshold
B2	below the threshold
